Tested on: isolated microspores of Triticale (variety Sunray)
Assay: CPP delivery of GUS enzyme into isolated microspores, GUS staining
Format: cell-based
Settings: GUS enzyme cargo:CPP 1:4, 1 hour at 37° C., three repeats
Protocol: Triticale line Sunray grown in a growth cabinet with a photoperiod of 19 h day (intensity 300 μE m-2 s-1), and temperature 18-15° C. (day-night) with a relative humidity at about 70% was used as the donor plant material. The plants were fertilized every 2 weeks (20-20-20, 200 ppm) and treated with 2.5 ml I-1 Tilt™ (propiconazole, Syngenta) during the tillering stage and Intercept™ (0.004 g per litre of soil, Imidacloprid, Bayer) once sufficient root development was established. The first 10 tillers from each pot were harvested when the spike was at 3-4 cm, depending on the crop, from emergence from the boot. These tillers (to be used for microspore isolation) were subjected to pre-treatment in a refrigerator (4° C.) for 21 days with their bases in distilled water and their heads wrapped in aluminum foil. After 21±3 days of pre-treatment, the spikes were excised from their tillers and after an evaluation of their general appearance, only the most homogenous spikes were used. After confirming microspores at mid to bi-nucleate stage from a median floret, using acetocarmine staining, the tillers were processed for extraction.
Awns were removed with scissors in a laminar flow hood. […] After counting the cells using a haemocytometer, aliquots of 100,000 cells in 200 μl volume were prepared in 2 ml microcentrifuge tubes to be ready for transduction. […]

B1: Gus protein: β-Glucuronidase (GUS; Sigma Aldrich, Escherichia coli Type VII-A), cargo used alone (protein, UniProt P05804 1-603, looked up)
Beta-glucuronidase: MLRPVETPTREIKKLDGLWAFSLDRENCGIDQRWWESALQESRAIAVPGSFNDQFADADIRNYAGNVWYQREVFIPKGWAGQRIVLRFDAVTHYGKVWVNNQEVMEHQGGYTPFEADVTPYVIAGKSVRITVCVNNELNWQTIPPGMVITDENGKKKQSYFHDFFNYAGIHRSVMLYTTPNTWVDDITVVTHVAQDCNHASVDWQVVANGDVSVELRDADQQVVATGQGTSGTLQVVNPHLWQPGEGYLYELCVTAKSQTECDIYPLRVGIRSVAVKGEQFLINHKPFYFTGFGRHEDADLRGKGFDNVLMVHDHALMDWIGANSYRTSHYPYAEEMLDWADEHGIVVIDETAAVGFNLSLGIGFEAGNKPKELYSEEAVNGETQQAHLQAIKELIARDKNHPSVVMWSIANEPDTRPQGAREYFAPLAEATRKLDPTRPITCVNVMFCDAHTDTISDLFDVLCLNRYYGWYVQSGDLETAEKVLEKELLAWQEKLHQPIIITEYGVDTLAGLHSMYTDMWSEEYQCAWLDMYHRVFDRVSAVVGEQVWNFADFATSQGILRVGGNKKGIFTRDRKPKSAAFLLQKRWTGMNFGEKPQQGGKQ
- Average Transduction Efficiency: not capable of transducing itself
